Reference: the nanobody polyreactivity screen of Harvey et al. (2022)

Test: yeast display, Sf9 membrane polyspecificity reagent, FACS + sequencing; frameworks hold sequencing errors
How it was run: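 After 36–48 hours of galactose induction, yeast (Saccharomyces cerevisiae BJ5465) displaying a synthetic nanobody library were stained at 4 °C for 1 hour with 10% biotinylated, detergent-solubilized Sf9 membrane reagent. Streptavidin microbeads enriched the stained cells before FACS sorting into low and high (top ~1%) gates on anti-HA and streptavidin fluorescence. Each clone's polyreactivity label reflects its gate of origin.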

Sequence | polyreactivity (PSR sort gate)
QVQLVESGGGLVQAGGSLRLSCAASGSTFTSYAMGWYRQAPGKESEFVAAISWDGDNTYADSVKGRFTISRDNAKNTVYLQMNSLKPEDTAVYYCAASHQNGNFGWGYDSWGQGTQVTVSS | high polyreactivity
QVQLVESGGGLVQAGGSLRLSCAASGSTFVKYAMGWYRQAPGKERELVATITRRGGNTYYADSVKGRFTISRDNAKYTVYLQMNSLKPEDTAVYYCAKYSRTKAFEYWGQGTQVTVSS | high polyreactivity
QVQLVESGGGLVQAGGSLRLSCAASGSTFSRYAMGWYRQAPGKERDLVAAISWGGNTYYADSVKGRFTISRDNAKNTVYLQMNSLKPEDTAVYYCNRYSKLYNTMDYWGQGTQVTVSS | high polyreactivity
QVQLVESGGGLVQAGGSLRLSCAASGRTFYLNTMGWYRQAPGKERELVAGITSSGTRTYYADSVKGRFTISRDNAKNTVYLQMNSLKPEDTAVYYSAKTWGGQIRPRYRYGSGYDYWGQGTQVTVSS | high polyreactivity
HVQLVESGGGLVQAGGSLRLSCAASGFIFKPYDMGLYRQAPGKERELVAAISWTGTSTYYADSVKGRFTISRDNAKNTVYLQINSLKPEDTAVFYCAKRWSAGAQHGFDYWGQGTQVTLSS | low polyreactivity
QVQLVESGGGLVQAGGSLRLSCAASGRIFSSYTMGWYRQAPGKERELVATITLRGGRTYYADSVKGRFTISRDNAKNTVYLQMNSLKPEDTAVYYCAATYLTYYHRFNYWGQGTQVTVSS | high polyreactivity
QVQHVESGGGLVQAGGSLRLSCAASGSTIRYYTMGWYRQPPGKERELVAAITYSGGSTYYADSVKGRFTISRDNAKNTVYLQKNSLKPEDTAVYYCAKRWSQPKYDYWGQGTQVTVSS | high polyreactivity
QVQLVESGGCLVQAGGSLRLSCAASGSTFNFYAMGWYRQAPGKEREFVAAITSSGDSTYYADSVKGRFTISRDNAKNTVYLQMNSLKPEDTAVYYCAALTPRNRYRKFDYWGQGTQVTVSS | high polyreactivity
QVQLVESGGGLVQAGGSLRLSCAASGFTFVGYAMGWYRQAPGKERELVAAITRRGGSTYYADSVKGRFTISRDNAKNTVYLQMNSLKPEDTGVYDCNKASYRISVPRYDYWGQGTQVTVSS | high polyreactivity
QVQLVESGGGLVKAGGSLRLSCAASGSIGSYAMGCYRQAPGKERELVAAISSRGGSTYYADSVKGRFTISRDNAKNTVYLQMNSLKPEDTAFYYCAADYRGRYYSKYYYWGQGTQVTVSS | high polyreactivity
QVQLVESGGGLVQAGGSLRLICAASGSTNPRNAMGWYRQAPGKERELDADITSGGSTNYADSVKGRFTISRDNAKNTVYLQMNRLKPEDTAVYYCAADEQVNTQYVVWGDYWGQGTQVTVSS | low polyreactivity
QVKLVESGAGVVQAGGSLRLSCAACGRIFLKYAMGWYRQAPGKERELVAAITSGGGRTSYADSVKGRFTISRDNAKNTVYLQMNSLKPEDTAVYYCNAPAYWRYILRGSAYDYWGQGTQVTVSS | high polyreactivity
QVQLEESGGGLVQAGGSLRLSCAASGSIFVYNAMGWYRQAPGKERELVAAISQRGGSTYYADSVKGRFTISRDNDKNTVYLQMNSLKPEDTAVYYCAAGPGDSGDDYWGQGTQVTVAS | low polyreactivity
QVQLEESGGGLVQAGGSLRLSCAASGGIFPAYAMGWYRQAPGKERELVASISANGGRTYYADSVKGRFTISRDNAKNTVYLQMNSLKPEDTAVYYCNASSLSGSWRFYYWGQGTQVTVSS | high polyreactivity
QVQLVESGGGLVQAGGSLRLSCAASGRIFRYNVMGWYRQPPGKERELVAAIRWSGGSTYYADSVKGRFTISRDNAKNTVYLQMNSLKPEDTAVYYCNTVGRWRGYDYWGQGTQVTVSS | high polyreactivity
QVQLVESGGGLVQAGGSLRLSCAASGRTFLRYAMGWYRQAPGKERELVAAISVSGGNTYYADSVKGRFTISRDNAKNTVYLQMKSLKPEDTAVYYCNKARLAAVFSYPYGYWGQGTQVTVSS | low polyreactivity

Sequence | polyreactivity (PSR sort gate)
QVQLVESVGGLVQAGGSLRLSCAASGRIFGTNAMGWYRQAPGKERELVADITSGGSTNYADSVKGRFTISRDNAKNTVYLQMNSLKPEDTAVYYCAADVIGDLRWYRDEYWGQGTQVTVSS | low polyreactivity
QVQLVESGGGLVQAGGSLRLSCAASGRTFGRYAMGWYRQAPGKERELVAAINRGGSTKYADSVKGRFTISRDNAKNTVYLQMNSLKPEDTAVYYCAKDRHPALHYDYWGQGTQVTVSS | low polyreactivity
QVQLVESGGGLVQAGGSLRLSCAASGSIFQYYVMGWYRQAPGKERELDAAIRRSGTTYYADSVKGRFTISRDNAKNTVYLQMNSLKPEDTAVDYCNADSIYYYYLIEYEYWGQGSQVTVSS | low polyreactivity
QVQLVESGGGLVQAGGSLRLSCAASGLILPDYAMGWYRQAPGKERELVAAISESAASTYYADSVKGRFTISRDNAKNTVYLQMNSLKPEDTAVYYCAAEVWCYSWYYWYYDGEYYWGQGTQVTVSS | high polyreactivity
QVQLVETGVGLVQAGGSLRLSCAASGLTFPNYDMGWYRQAPGKEMELVAAISSSGGSTYYADSVKGRFTISRDNAKNTVYLQMNSLKPEDTAVYYCATEWSYYNYGYDYWGQGTQVTVSS | low polyreactivity
QVQLVESGGCLVQAGGSLRLSCAASGRIFGSYTKGWYRQAPGKERELVAAISDSGDSTYADSVKGRFTISRDNAKNTVYLQMNSLKPEDTAVYYCNAKSGSLAGNEYDYWGQGTQVTVSS | low polyreactivity
QVQLVESGGGLVQAGGSLRLSCAASGRTFGNNAMGWYRQAPGKERELVAAITGSGGSTYYADSVKGRFTISRDNAKNTVYLQMNSLKPEDTAVYYCAAVVYGAVRGSRYPYYYWGQGTQVTVSS | high polyreactivity
QVQLVESGGGLVHAGGSLRLSCAASGLTFYYYDMGWYRQAPGKERELVAAITRRGGSTYYADSVKGRFTISRDNAKNTVYLQMNSLKPEDTAVYYCNALSRTVSHEADDYWGQGTHVTVSS | high polyreactivity
QVHLVESGGGLVQAGGSLRLSCAASGFTFGVYAMGWYRQAPGKERELVAAISRRGTSTYYADSVKGRFTISRDTAKYTVYLQMNSLKPEDTAVYYCNARRYQVTVDHWGQGTQVTVSS | high polyreactivity
QVQLQESGGGMVQAGGSLRLSCAASGYISWADNMAWYRQAPGKERELVAGIGYGSTTYYADSVKGRFTISRDNAKNTAYLQMNSLKPEDTSVYYCAVGWYRDTAYKYWGQGTQVTVSS | low polyreactivity
QVQLVESGGGLVQAGGSLRLSCAASGSIFYTNAMGWYRQAPGKERELVAAISISGSTYYADSVKGRFTISRDNAKNTVYLQMNSLKPEDTAVYYCAAGPGYVRYPRSGVWYVTLYDYWGQGTQVTVSS | high polyreactivity
QGQLVESGGGLVQAGGSLRLSCAASGGIFDSNAMGWYRQARGKERELVAAISDSGGSTYYADSVKGRFTITRDNAKNTVYLQMNSLKTDDTAVYDCAADSDYHFLNYRFGMDYWGQGTQVTVSS | low polyreactivity
QVQLVESGGGLVQAGGSLRLSCAASARTFATYAMGWYRHAPGKEWELVAGITSGGNTYYADSVKGRFTISRDNAKNTVYLQMNSLKPVDTAVYYCAADRVYLGLFRYEYWGQGTQVTVSS | high polyreactivity
QVQLVESGGGLVQAGGSLRISSAAYGRIIYGYAMGWYRQAPGKERELVAAITWRGTSTYYADSVKGRFTISRDNAKNTVYLQMNCLKPEDTAVYYCNAVRSLAYWGQGTQVTVSS | high polyreactivity
QVQLVESGGGLVQAGGSLRLSCAASGRTFVYNAMGWYRQAPGKERELVAAITRNGGSTYYADSVKGRFTISRDNAKNTVYLQMNSLKPEDTAVYYCNRDVRYVGRSGFDYWGQGTQVTVSS | high polyreactivity
QVQLVESGGGLVQAGGSLRLSCAASGSIFYRNAMGWYRQAPGKERELVAAISSDGSTNYADSVKGRFTISRDNAKNTVYLQMNSLKPEDTAVYYCNVPYYLPSYLSGYDYWGQGTQVTVSS | low polyreactivity
